B1: IPN002 scFv-HA expressed from TAU_ITR155 (CAG, LH, (G4S)6) (scFv)
scFv: DVLMTQTPLSLPVSLGDQASISCKSSQSIVHSNGNTYLEWYLQKPGQSPKLLVYKVSNRFSGVPDRFSGSGSGTDFTLKISRVEAEDLGTYYCFQGSLVPWAFGGGTKLEIKGGGGSGGGGSGGGGSGGGGSGGGGSGGGGSEVHLVESGGALVKPGGSLKLSCAASGFSFSKYGMSWVRQTPDKRLEWVATISSSGSRTYYPDSVKGQFTISRDNAKNTLYLQMSSLKSEDTAMYYCSISWDGAMDYWGQGTSVTVSS
notes: also called CAG-IPN0014-LH-G4S6
B2: IPN002 F(ab')2_hIgG3_3hinge expressed from TAU_ITR122 (CBA, hGbin, HF.T2AL) (F(ab')2)
VH: EVHLVESGGALVKPGGSLKLSCAASGFSFSKYGMSWVRQTPDKRLEWVATISSSGSRTYYPDSVKGQFTISRDNAKNTLYLQMSSLKSEDTAMYYCSISWDGAMDYWGQGTSVTVSS
VL: DVLMTQTPLSLPVSLGDQASISCKSSQSIVHSNGNTYLEWYLQKPGQSPKLLVYKVSNRFSGVPDRFSGSGSGTDFTLKISRVEAEDLGTYYCFQGSLVPWAFGGGTKLEIK
B3: IPN002 scFv-HA expressed from TAU_ITR137 (CAG, HL, G4S) (scFv)
scFv: EVHLVESGGALVKPGGSLKLSCAASGFSFSKYGMSWVRQTPDKRLEWVATISSSGSRTYYPDSVKGQFTISRDNAKNTLYLQMSSLKSEDTAMYYCSISWDGAMDYWGQGTSVTVSSGGGGSDVLMTQTPLSLPVSLGDQASISCKSSQSIVHSNGNTYLEWYLQKPGQSPKLLVYKVSNRFSGVPDRFSGSGSGTDFTLKISRVEAEDLGTYYCFQGSLVPWAFGGGTKLEIK
notes: also called CAG-IPN002-HL-G4S; H(G4S)L
B4: IPN002 scFv-HA expressed from TAU_ITR139 (CAG, HL, (G4S)3) (scFv)
scFv: EVHLVESGGALVKPGGSLKLSCAASGFSFSKYGMSWVRQTPDKRLEWVATISSSGSRTYYPDSVKGQFTISRDNAKNTLYLQMSSLKSEDTAMYYCSISWDGAMDYWGQGTSVTVSSGGGGSGGGGSGGGGSDVLMTQTPLSLPVSLGDQASISCKSSQSIVHSNGNTYLEWYLQKPGQSPKLLVYKVSNRFSGVPDRFSGSGSGTDFTLKISRVEAEDLGTYYCFQGSLVPWAFGGGTKLEIK
notes: also called CAG-IPN003-HL-G4S3; H(G4S)3L
B5: IPN002 scFv-HA expressed from TAU_ITR140 (CAG, HL, (G4S)4) (scFv)
scFv: EVHLVESGGALVKPGGSLKLSCAASGFSFSKYGMSWVRQTPDKRLEWVATISSSGSRTYYPDSVKGQFTISRDNAKNTLYLQMSSLKSEDTAMYYCSISWDGAMDYWGQGTSVTVSSGGGGSGGGGSGGGGSGGGGSDVLMTQTPLSLPVSLGDQASISCKSSQSIVHSNGNTYLEWYLQKPGQSPKLLVYKVSNRFSGVPDRFSGSGSGTDFTLKISRVEAEDLGTYYCFQGSLVPWAFGGGTKLEIK
notes: also called CAG-IPN008-HL-G4S4
B6: IPN002 scFv-HA expressed from TAU_ITR141 (CAG, HL, (G4S)5) (scFv)
scFv: EVHLVESGGALVKPGGSLKLSCAASGFSFSKYGMSWVRQTPDKRLEWVATISSSGSRTYYPDSVKGQFTISRDNAKNTLYLQMSSLKSEDTAMYYCSISWDGAMDYWGQGTSVTVSSGGGGSGGGGSGGGGSGGGGSGGGGSDVLMTQTPLSLPVSLGDQASISCKSSQSIVHSNGNTYLEWYLQKPGQSPKLLVYKVSNRFSGVPDRFSGSGSGTDFTLKISRVEAEDLGTYYCFQGSLVPWAFGGGTKLEIK
notes: also called CAG-IPN0010-HL-G4S5
B7: IPN002 scFv-HA expressed from TAU_ITR142 (CAG, HL, (G4S)6) (scFv)
scFv: EVHLVESGGALVKPGGSLKLSCAASGFSFSKYGMSWVRQTPDKRLEWVATISSSGSRTYYPDSVKGQFTISRDNAKNTLYLQMSSLKSEDTAMYYCSISWDGAMDYWGQGTSVTVSSGGGGSGGGGSGGGGSGGGGSGGGGSGGGGSDVLMTQTPLSLPVSLGDQASISCKSSQSIVHSNGNTYLEWYLQKPGQSPKLLVYKVSNRFSGVPDRFSGSGSGTDFTLKISRVEAEDLGTYYCFQGSLVPWAFGGGTKLEIK
notes: also called CAG-IPN0011-HL-G4S6
B8: IPN002 scFv-HA expressed from TAU_ITR143 (CAG, HL, (G4S)8) (scFv)
scFv: EVHLVESGGALVKPGGSLKLSCAASGFSFSKYGMSWVRQTPDKRLEWVATISSSGSRTYYPDSVKGQFTISRDNAKNTLYLQMSSLKSEDTAMYYCSISWDGAMDYWGQGTSVTVSSGGGGSGGGGSGGGGSGGGGSGGGGSGGGGSGGGGSGGGGSDVLMTQTPLSLPVSLGDQASISCKSSQSIVHSNGNTYLEWYLQKPGQSPKLLVYKVSNRFSGVPDRFSGSGSGTDFTLKISRVEAEDLGTYYCFQGSLVPWAFGGGTKLEIK
notes: also called CAG-IPN0012-HL-G4S8
B9: IPN002 scFv-HA expressed from TAU_ITR150 (CAG, LH, G4S) (scFv)
scFv: DVLMTQTPLSLPVSLGDQASISCKSSQSIVHSNGNTYLEWYLQKPGQSPKLLVYKVSNRFSGVPDRFSGSGSGTDFTLKISRVEAEDLGTYYCFQGSLVPWAFGGGTKLEIKGGGGSEVHLVESGGALVKPGGSLKLSCAASGFSFSKYGMSWVRQTPDKRLEWVATISSSGSRTYYPDSVKGQFTISRDNAKNTLYLQMSSLKSEDTAMYYCSISWDGAMDYWGQGTSVTVSS
notes: also called CAG-IPN004-LH-G4S; L(G4S)H
B10: IPN002 scFv-HA expressed from TAU_ITR151 (CAG, LH, (G4S)2) (scFv)
scFv: DVLMTQTPLSLPVSLGDQASISCKSSQSIVHSNGNTYLEWYLQKPGQSPKLLVYKVSNRFSGVPDRFSGSGSGTDFTLKISRVEAEDLGTYYCFQGSLVPWAFGGGTKLEIKGGGGSGGGGSEVHLVESGGALVKPGGSLKLSCAASGFSFSKYGMSWVRQTPDKRLEWVATISSSGSRTYYPDSVKGQFTISRDNAKNTLYLQMSSLKSEDTAMYYCSISWDGAMDYWGQGTSVTVSS
notes: also called CAG-IPN004-LH-G4S2
B11: IPN002 scFv-HA expressed from TAU_ITR152 (CAG, LH, (G4S)3) (scFv)
scFv: DVLMTQTPLSLPVSLGDQASISCKSSQSIVHSNGNTYLEWYLQKPGQSPKLLVYKVSNRFSGVPDRFSGSGSGTDFTLKISRVEAEDLGTYYCFQGSLVPWAFGGGTKLEIKGGGGSGGGGSGGGGSEVHLVESGGALVKPGGSLKLSCAASGFSFSKYGMSWVRQTPDKRLEWVATISSSGSRTYYPDSVKGQFTISRDNAKNTLYLQMSSLKSEDTAMYYCSISWDGAMDYWGQGTSVTVSS
notes: also called CAG-IPN005-LH-G4S3; L(G4S)3H
B12: IPN002 scFv-HA expressed from TAU_ITR153 (CAG, LH, (G4S)4) (scFv)
scFv: DVLMTQTPLSLPVSLGDQASISCKSSQSIVHSNGNTYLEWYLQKPGQSPKLLVYKVSNRFSGVPDRFSGSGSGTDFTLKISRVEAEDLGTYYCFQGSLVPWAFGGGTKLEIKGGGGSGGGGSGGGGSGGGGSEVHLVESGGALVKPGGSLKLSCAASGFSFSKYGMSWVRQTPDKRLEWVATISSSGSRTYYPDSVKGQFTISRDNAKNTLYLQMSSLKSEDTAMYYCSISWDGAMDYWGQGTSVTVSS
notes: also called CAG-IPN006-LH-G4S4
B13: IPN002 scFv-HA expressed from TAU_ITR154 (CAG, LH, (G4S)5) (scFv)
scFv: DVLMTQTPLSLPVSLGDQASISCKSSQSIVHSNGNTYLEWYLQKPGQSPKLLVYKVSNRFSGVPDRFSGSGSGTDFTLKISRVEAEDLGTYYCFQGSLVPWAFGGGTKLEIKGGGGSGGGGSGGGGSGGGGSGGGGSEVHLVESGGALVKPGGSLKLSCAASGFSFSKYGMSWVRQTPDKRLEWVATISSSGSRTYYPDSVKGQFTISRDNAKNTLYLQMSSLKSEDTAMYYCSISWDGAMDYWGQGTSVTVSS
notes: also called CAG-IPN007-LH-G4S5

These binders were tested against T1, wild-type tau (441 amino acids; tau441; NP_005901.2) (human, UniProt P10636 1-758) (assay: wild-type tau ELISA, 293 cell supernatant).
T1 construct: Unphosphorylated recombinant tau441 used in the wild-type tau ELISA; also called wt tau441; wtTau
T1 sequence (P10636 other isoform, or with tags, fused parts or gaps limits assumed): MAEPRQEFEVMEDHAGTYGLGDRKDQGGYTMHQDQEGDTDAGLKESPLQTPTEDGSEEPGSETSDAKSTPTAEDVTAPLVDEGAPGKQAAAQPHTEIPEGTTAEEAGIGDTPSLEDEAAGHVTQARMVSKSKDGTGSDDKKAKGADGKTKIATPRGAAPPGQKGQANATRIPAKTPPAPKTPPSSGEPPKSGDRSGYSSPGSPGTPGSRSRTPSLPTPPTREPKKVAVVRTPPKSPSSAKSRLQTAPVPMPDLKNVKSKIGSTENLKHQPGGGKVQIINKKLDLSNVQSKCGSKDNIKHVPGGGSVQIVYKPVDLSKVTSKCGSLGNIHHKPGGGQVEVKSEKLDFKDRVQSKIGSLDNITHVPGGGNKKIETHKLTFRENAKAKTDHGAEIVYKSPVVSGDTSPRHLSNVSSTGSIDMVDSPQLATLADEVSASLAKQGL
B1: binds.
B2: binds.
B3: binds.
B4: binds.
B5: binds.
B6: binds.
B7: binds.
B8: binds.
B9: binds.
B10: binds.
B11: binds.
B12: binds.
B13: binds.
